From the supplement of paper PMC9876800

Test system: peptide library, one residue held at a place counted from the S/T acceptor
Experiment: relative phosphorylation of the sub-library (ratio to the mean residue at this position); higher = residue favoured
Outline: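 Purified recombinant kinases were reacted in 384-well plates with biotinylated degenerate peptide sub-libraries, each having one residue fixed at one position around a central Ser/Thr. The reaction mix contained 50 μM peptide plus 50 μM ATP spiked with γ-32P-ATP and ran for 90 min under kinase-specific conditions. Relative sub-library phosphorylation, taken from densitometry of phosphorimaged streptavidin membrane spots, is a ratio to the mean residue at that position.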

MAPK8, construct: aa1-384, human, sequence (P45983 1-384, looked up): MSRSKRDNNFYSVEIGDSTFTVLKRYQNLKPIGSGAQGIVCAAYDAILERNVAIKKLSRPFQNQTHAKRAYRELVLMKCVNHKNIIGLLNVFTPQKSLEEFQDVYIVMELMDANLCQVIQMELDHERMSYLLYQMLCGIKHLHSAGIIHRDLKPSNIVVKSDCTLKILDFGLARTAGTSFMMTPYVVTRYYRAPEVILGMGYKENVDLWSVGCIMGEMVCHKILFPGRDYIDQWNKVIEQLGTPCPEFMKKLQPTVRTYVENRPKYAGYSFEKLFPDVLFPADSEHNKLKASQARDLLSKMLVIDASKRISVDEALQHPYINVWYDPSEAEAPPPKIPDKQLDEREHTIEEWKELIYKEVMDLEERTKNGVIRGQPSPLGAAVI

MAPK8, construct: aa1-384, human (from UniProt P45983)
relative phosphorylation
Settings	at +1	at +2	at +3	at +4	at -1	at -2	at -3	at -4	at -5
A fixed	0.237	0.912	1.46	1.17	1.03	2.05	1.17	1.13	1.18
D fixed	0.295	1.06	1.86	1.25	0.995	0.9	1.65	1.61	1.42
E fixed	0.222	0.814	1.86	1.34	0.888	0.556	1.5	1.41	1.06
F fixed	0.309	0.673	0.845	0.778	0.6	0.456	0.663	0.858	0.94
G fixed	0.676	1.22	1.49	1.07	1.31	0.724	1.1	1.03	1.06
H fixed	0.21	0.841	1.02	1.05	0.938	0.446	0.937	1.07	1.07
I fixed	0.247	1.67	0.698	1.11	0.674	1.41	0.797	0.728	0.763
K fixed	0.195	0.501	0.528	0.698	0.95	0.348	0.571	0.75	0.791
L fixed	0.322	1.45	0.881	1.02	1.45	2.55	0.898	0.753	0.685
M fixed	0.25	2	0.922	1	1.43	1.3	0.984	0.962	0.744
N fixed	0.191	0.793	0.84	0.819	0.861	0.469	1.06	0.846	0.826
P fixed	12.8	0.568	0.629	1.57	1.52	2.46	1.33	1.25	1.39
Q fixed	0.193	0.851	0.826	0.913	1.37	0.665	1.01	1.08	1.21
R fixed	0.18	0.575	0.619	0.547	0.886	0.484	0.879	0.778	0.974
V fixed	0.254	1.87	0.809	0.909	0.844	1.48	0.91	0.891	0.849
W fixed	0.196	0.53	0.878	0.937	0.582	0.338	0.727	0.993	0.858
Y fixed	0.213	0.663	0.837	0.81	0.671	0.381	0.808	0.865	1.19
pThr fixed	0.612	2.32	1.64	1.91	0.582	1.28	1.14	1.37	1.34
pTyr fixed	0.866	1.99	8.3	3.22	1.84	1.25	1.58	2.57	1.93

PRKCE, construct: Full length, human (from UniProt Q02156)
relative phosphorylation
Settings	at +1	at +2	at +3	at +4	at -1	at -2	at -3	at -4	at -5
A fixed	0.507	0.48	0.795	0.905	1.06	0.774	0.669	1.12	1.16
D fixed	0.169	0.162	0.342	0.375	0.373	0.296	0.223	0.455	0.383
E fixed	0.165	0.138	0.347	0.334	0.312	0.308	0.235	0.558	0.35
F fixed	1.7	0.528	0.831	0.561	0.588	0.69	0.691	0.783	1.28
G fixed	0.525	0.366	1.01	0.967	1.59	0.908	0.731	1.08	1.05
H fixed	0.66	1.02	1.25	1.16	0.936	1.1	1.09	1.16	1.12
I fixed	1.43	0.515	0.619	0.6	0.44	0.393	0.435	0.689	0.935
K fixed	2.1	4.18	2.99	3.19	2.52	2.35	2.17	2.11	1.67
L fixed	1.15	0.441	0.746	0.567	0.679	0.425	0.466	0.639	0.934
M fixed	1.18	0.566	0.581	0.62	0.813	0.528	0.545	0.833	0.744
N fixed	0.577	0.501	0.661	0.921	0.997	0.834	0.552	0.822	0.665
P fixed	0.473	0.357	0.604	1.07	1.21	0.623	0.708	0.919	0.921
Q fixed	1.01	0.543	0.7	0.931	0.949	0.957	0.64	0.894	0.753
R fixed	2.4	4.74	3.01	2.59	2.49	4.46	5.89	2.3	1.93
V fixed	1.32	0.537	0.67	0.634	0.611	0.529	0.413	0.808	0.757
W fixed	0.717	0.516	0.891	0.961	0.471	1.12	0.613	1.02	1.39
Y fixed	0.928	1.4	0.95	0.607	0.968	0.701	0.934	0.82	0.956
pThr fixed	0.851	0.471	0.573	0.688	0.378	0.561	0.657	0.799	0.932
pTyr fixed	0.505	0.525	0.731	0.569	0.528	0.535	0.678	0.625	0.989
